Reference: patent US20210369822A1 (published 2021)

Target: hERG (UniProt Q12809 1-1159)
Assay: cell-based or functional assay

Sequence of hERG (Q12809 whole entry): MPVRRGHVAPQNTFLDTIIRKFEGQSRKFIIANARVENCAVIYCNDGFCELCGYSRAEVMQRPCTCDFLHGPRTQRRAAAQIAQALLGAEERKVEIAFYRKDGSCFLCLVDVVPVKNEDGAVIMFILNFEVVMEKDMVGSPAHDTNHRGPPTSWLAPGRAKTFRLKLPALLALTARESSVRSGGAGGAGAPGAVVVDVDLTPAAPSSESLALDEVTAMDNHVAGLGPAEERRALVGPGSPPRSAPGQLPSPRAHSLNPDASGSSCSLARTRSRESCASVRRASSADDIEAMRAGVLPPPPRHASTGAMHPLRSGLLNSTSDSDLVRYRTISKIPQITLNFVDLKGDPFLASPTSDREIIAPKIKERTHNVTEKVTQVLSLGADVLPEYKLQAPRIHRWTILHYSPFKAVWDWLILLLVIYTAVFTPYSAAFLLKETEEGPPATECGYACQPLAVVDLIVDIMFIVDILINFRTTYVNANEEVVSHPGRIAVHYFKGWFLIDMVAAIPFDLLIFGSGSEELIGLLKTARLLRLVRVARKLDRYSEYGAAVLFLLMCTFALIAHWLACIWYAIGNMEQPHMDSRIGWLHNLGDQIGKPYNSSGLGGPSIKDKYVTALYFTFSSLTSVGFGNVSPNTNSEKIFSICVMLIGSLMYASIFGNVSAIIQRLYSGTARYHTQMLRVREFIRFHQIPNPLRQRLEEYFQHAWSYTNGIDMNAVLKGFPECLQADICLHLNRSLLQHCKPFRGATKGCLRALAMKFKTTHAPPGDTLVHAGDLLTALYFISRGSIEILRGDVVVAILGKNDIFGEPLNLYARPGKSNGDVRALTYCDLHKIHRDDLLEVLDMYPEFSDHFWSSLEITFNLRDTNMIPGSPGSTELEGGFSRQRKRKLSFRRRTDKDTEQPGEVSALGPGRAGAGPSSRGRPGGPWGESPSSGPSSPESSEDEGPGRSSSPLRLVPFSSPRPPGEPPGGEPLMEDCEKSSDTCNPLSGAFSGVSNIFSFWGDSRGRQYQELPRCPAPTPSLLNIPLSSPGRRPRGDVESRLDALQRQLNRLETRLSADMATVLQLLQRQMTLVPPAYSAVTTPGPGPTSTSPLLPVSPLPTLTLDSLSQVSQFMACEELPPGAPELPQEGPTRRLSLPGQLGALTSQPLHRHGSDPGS

VKFNKPFVFLMIEQNTK [SP16]
IC50 value (µM), hERG FastPatch assay: > 25 µM
